# From PMC3082007, “The microRNA cluster miR-106b~25 regulates adult neural stem/progenitor cell proliferation and neuronal differentiation”
# B1: FHRE WT (miR-106b~25/Mcm7 intron 1) (dsDNA)
# DNA 1: GGCCCATGTGCTTCTTTGTTTACTAAGAGCGGAAGCAG
# DNA 2: CTGCTTCCGCTCTTAGTAAACAAAGAAGCACATGGGCC
# Biological target: FoxO3-GST (human, UniProt O43524 1-673)
# Experiment: EMSA; 5 nM probe; 50 ng/ul protein; Binding Buffer as printed: 200 mM Tris-HCl pH 7.5, 200 mM KCl, 200 mM MgCl2, 2% NP-40, 10% glycerol, 5 mM DTT, 500 ng/ul salmon sperm DNA (possibly a stock concentration); room temperature 20 min; 4% native PAGE at 4 C
# Settings: protein: recombinant; tags: GST; label: 32P; blunt
# Chain of FoxO3-GST (O43524 whole entry): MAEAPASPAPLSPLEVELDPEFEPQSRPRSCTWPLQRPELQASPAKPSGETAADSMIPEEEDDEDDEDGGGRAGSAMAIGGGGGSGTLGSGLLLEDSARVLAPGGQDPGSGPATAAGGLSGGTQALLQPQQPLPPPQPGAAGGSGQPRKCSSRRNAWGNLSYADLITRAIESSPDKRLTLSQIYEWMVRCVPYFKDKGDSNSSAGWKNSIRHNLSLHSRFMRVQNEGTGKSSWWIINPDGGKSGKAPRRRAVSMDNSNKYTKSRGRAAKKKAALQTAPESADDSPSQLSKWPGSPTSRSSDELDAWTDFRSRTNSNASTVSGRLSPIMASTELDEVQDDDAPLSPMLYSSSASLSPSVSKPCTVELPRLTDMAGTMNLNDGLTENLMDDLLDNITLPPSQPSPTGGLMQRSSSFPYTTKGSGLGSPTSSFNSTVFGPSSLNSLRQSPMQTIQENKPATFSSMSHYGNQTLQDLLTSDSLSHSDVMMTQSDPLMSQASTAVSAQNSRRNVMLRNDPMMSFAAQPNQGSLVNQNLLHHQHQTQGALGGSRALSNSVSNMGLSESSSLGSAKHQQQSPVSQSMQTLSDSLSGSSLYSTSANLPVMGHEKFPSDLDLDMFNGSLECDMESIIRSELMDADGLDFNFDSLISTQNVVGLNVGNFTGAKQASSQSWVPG
binder,measurement,value
B1,binding result,binds
